For assay [1], the target named is SARS-CoV-2 Receptor Binding Domain (RBD) protein (SARS-CoV-2, UniProt P0DTC2 319-541).
Assay [2] addresses T1, SARS-CoV-1 Receptor Binding Domain (RBD) protein (SARS-CoV-1, UniProt P59594 306-527).
T1 construct: also called SARS1
The assay can be described thus: SPR; clone listed as COV2 only at the 21st table, row 53, column 3. On the technique in general: In SPR one partner is held on a chip, and binding of the other changes the refractive index at the surface.

In assay [3] the target is T2, MERS Receptor Binding Domain (RBD) protein (MERS virus, UniProt K9N5Q8 367-606).
T2 construct: also called Middle East Respiratory Syndrome (MERS) virus
T2 sequence: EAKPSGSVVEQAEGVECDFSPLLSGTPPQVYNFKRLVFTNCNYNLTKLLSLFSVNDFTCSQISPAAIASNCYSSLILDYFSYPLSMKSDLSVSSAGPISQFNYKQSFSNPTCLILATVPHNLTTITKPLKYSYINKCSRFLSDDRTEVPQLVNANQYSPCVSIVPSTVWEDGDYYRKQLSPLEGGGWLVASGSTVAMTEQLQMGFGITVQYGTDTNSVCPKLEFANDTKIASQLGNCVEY
Described as above.

The target in assay [4] is T1, SARS-CoV-1 Receptor Binding Domain …. In words: SPR; clone listed as COV2 only at the 21st table, row 11, column 3.
The target of assay [5] is T2, MERS Receptor Binding Domain (RBD) …. The assay is described as above.
The target of assay [6] is T1, SARS-CoV-1 Receptor Binding Domain …. The assay can be described thus: SPR; clone listed as COV2 only at the 21st table, row 55, column 3.
The target in assay [7] is T2, MERS Receptor Binding Domain (RBD) …. Described as above.

B1: COVID19_P21_A03 (scFv, V domains shown)
VH: QVQLVQSGAEVKKPGSSVKVSCKASGGTFSNNGLSWVRQAPGQGLEWMGGIIPIFGTANYAQKFQGRVTITADESTSTAYMELSSLRSEDTAVYYCRMGSGISTPMDVWGQGTLVTVSS
VL: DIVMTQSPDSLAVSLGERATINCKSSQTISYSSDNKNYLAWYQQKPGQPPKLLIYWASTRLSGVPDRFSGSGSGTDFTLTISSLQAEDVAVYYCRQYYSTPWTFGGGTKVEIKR
For B1, in assay [1], the affinity, expressed as Kd, was 20.6 nM; the off-rate constant (koff) was found to be 0.000858 s⁻¹; the kon is 41700 M⁻¹ s⁻¹.

B2: COVID19_P09_G12 (scFv, V domains shown)
VH: QVQLVQSGAEVKKPGSSVKVSCKASGYPFTNYGISWVRQAPGQGLEWMGWMNPNSGNTGYAQKFQGRVTITADESTSTAYMELSSLRSEDTAVYYCATLSGISTPMDVWGQGTLVTVSS
VL: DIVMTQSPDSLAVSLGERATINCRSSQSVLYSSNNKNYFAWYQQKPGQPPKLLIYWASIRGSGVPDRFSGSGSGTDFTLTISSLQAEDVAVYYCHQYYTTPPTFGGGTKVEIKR
As to B2, in assay [1], the Kd turned out to be 0.4 nM, the koff was 0.000363 s⁻¹ and the on-rate constant (kon) was 828000 M⁻¹ s⁻¹. For the same molecule, in assay [2], the binding result is on record as “no binding (tested: up to 300 nM)”. In addition, the binding result in assay [3] is reported as “no binding (tested: up to 300 nM)”.

B3: COVID19_P21_A05 (scFv, V domains shown)
VH: QVQLVQSGAEVKKPGSSVKVSCKASGGGFITYWIGWVRQAPGQGLEWMGIIYPGDGETRYSQKFQGRVTITADESTSTAYMELSSLRSEDTAVYYCAGGSGISTPMDVWGQGTLVTVSS
VL: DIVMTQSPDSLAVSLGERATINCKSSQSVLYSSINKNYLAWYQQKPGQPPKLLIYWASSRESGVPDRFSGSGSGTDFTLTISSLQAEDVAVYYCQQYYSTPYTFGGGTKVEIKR
In assay [1], B3 returned a Kd of 41.2 nM, a koff of 0.0173 s⁻¹ and an on-rate constant (kon) of 419000 M⁻¹ s⁻¹.

B4: COVID19_P21_A04 (scFv, V domains shown)
VH: QVQLVQSGAEVKKPGSSVKVSCKASGYGFITYWIGWVRQAPGQGLEWMGIIYPGDSETRYSQKFQGRVTITADESTSTAYMELSSLRSEDTAVYYCAGGSGLLTPMDVWGQGTLVTVSS
VL: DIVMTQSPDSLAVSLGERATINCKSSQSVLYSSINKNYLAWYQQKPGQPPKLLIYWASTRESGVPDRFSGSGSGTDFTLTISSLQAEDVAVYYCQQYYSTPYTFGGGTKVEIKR
In assay [1], B4 had a Kd of 35 nM, a koff of 0.0143 s⁻¹ and a kon of 409000 M⁻¹ s⁻¹.

B5: COVID19_P09_G05 (scFv, V domains shown)
VH: QVQLVQSGAEVKKPGSSVKVSCKASGYTFTGHYMHWVRQAPGQGLEWMGIIYPGDSEARYSQKFQGRVTITADESTSTAYMELSSLRSEDTAVYYCAGGSGISTPMDVWGQGTLVTVSS
VL: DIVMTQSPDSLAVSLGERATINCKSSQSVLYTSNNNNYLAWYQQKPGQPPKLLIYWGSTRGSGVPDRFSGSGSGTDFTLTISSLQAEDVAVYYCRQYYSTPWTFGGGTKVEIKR
In assay [1], B5 gave an equilibrium dissociation constant (Kd) of 11.3 nM, a koff of 0.000482 s⁻¹ and a kon of 42600 M⁻¹ s⁻¹.

B6: COVID19_P21_F02 (scFv, V domains shown)
VH: QVQLVQSGAEVKKPGSSVKVSCKASGYTFTSYGISWVRQAPGQGLEWMGIIYPGDGTTRYSQKFQGRVTITADESTSTAYMELSSLRSEDTAVYYCLPGSGISTPMDVWGQGTLVTVSS
VL: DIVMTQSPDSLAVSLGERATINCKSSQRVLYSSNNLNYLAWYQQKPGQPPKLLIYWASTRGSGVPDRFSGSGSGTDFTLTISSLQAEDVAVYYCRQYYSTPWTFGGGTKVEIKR
In the case of B6, in assay [1], binding was put at a Kd of 26.8 nM, the off-rate (koff) stood at 0.000679 s⁻¹ and the kon was 25400 M⁻¹ s⁻¹.

B7: COVID19_P21_H02 (scFv, V domains shown)
VH: QVQLVQSGAEVKKPGSSVKVSCKASGYGFITYWIGWVRQAPGQGLEWMGIIYPGDSETRYAQKFQGRVTITADESTSTAYMELSSLRSEDTAVYYCAGGSGLYTPMDVWGQGTLVTVSS
VL: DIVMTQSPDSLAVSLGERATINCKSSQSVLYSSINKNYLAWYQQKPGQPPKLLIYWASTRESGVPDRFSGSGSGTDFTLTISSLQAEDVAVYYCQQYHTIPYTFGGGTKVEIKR
With B7, in assay [1], binding was put at a Kd of 40.3 nM, the koff amounted to 0.0124 s⁻¹ and the kon worked out at 308000 M⁻¹ s⁻¹.

B8: COVID19_P22_F11 (scFv, V domains shown)
VH: QVQLVQSGAEVKKPGSSVKVSCKASGGGFITYWISWVRQAPGQGLEWMGIIYPGDGEARYSQKFQGRVTITADESTSTAYMELSSLRSEDTAVYYCAGGSGIIQPMDVWGQGTLVTVSS
VL: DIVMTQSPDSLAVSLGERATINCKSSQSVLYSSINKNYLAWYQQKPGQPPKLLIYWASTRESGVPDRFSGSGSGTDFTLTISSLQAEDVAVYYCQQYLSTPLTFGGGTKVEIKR
In assay [1], B8 yielded a Kd of 23.3 nM, a koff of 0.0093 s⁻¹ and a kon of 400000 M⁻¹ s⁻¹. Also, the binding result in assay [4] is on record as “no binding (tested: up to 300 nM)”. In addition, the binding result in assay [5] is reported as “no binding (tested: up to 300 nM)”.

B9: COVID19_P21_C09 (scFv, V domains shown)
VH: QVQLVQSGAEVKKPGSSVKVSCKASGYGFISYWIGWVRQAPGQGLEWMGIIYPGDSETRYSQKFQGRVTITADESTSTAYMELSSLRSEDTAVYYCAGGSGILEPMDVWGQGTLVTVSS
VL: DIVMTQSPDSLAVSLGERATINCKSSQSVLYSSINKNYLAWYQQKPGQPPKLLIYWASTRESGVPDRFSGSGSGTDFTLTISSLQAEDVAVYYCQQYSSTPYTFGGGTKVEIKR
Take B9: in assay [1], the Kd was found to be 28.5 nM, the koff came to 0.0157 s⁻¹ and the association rate constant (kon) is 551000 M⁻¹ s⁻¹.

B10: COVID19_P21_B11 (scFv, V domains shown)
VH: QVQLVQSGAEVKKPGSSVKVSCKASGYGFITYWIGWVRQAPGQGLEWMGIIYPGDSETRYSQKFQGRVTITADESTSTAYMELSSLRSEDTAVYYCAGSDGISTPMDVWGQGTLVTVSS
VL: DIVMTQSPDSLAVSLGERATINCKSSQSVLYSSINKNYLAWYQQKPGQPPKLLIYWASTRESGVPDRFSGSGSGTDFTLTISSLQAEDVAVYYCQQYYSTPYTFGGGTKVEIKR
In assay [1], B10 displayed a Kd of 26.3 nM, a koff of 0.0166 s⁻¹ and a kon of 631000 M⁻¹ s⁻¹.

B11: COVID19_P22_E10 (scFv, V domains shown)
VH: QVQLVQSGAEVKKPGSSVKVSCKASGGGFITYWIGWVRQAPGQGLEWMGIIYPGDGETRYSQKFQGRVTITADESTSTAYMELSSLRSEDTAVYYCAGGSGISTPMDVWGQGTLVTVSS
VL: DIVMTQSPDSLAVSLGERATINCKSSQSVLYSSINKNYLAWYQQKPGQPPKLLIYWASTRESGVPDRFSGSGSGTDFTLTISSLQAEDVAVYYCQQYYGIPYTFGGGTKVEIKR
Turning to B11, in assay [1], the affinity, expressed as Kd, was 25.3 nM; the off-rate (koff) was 0.0058 s⁻¹; the kon came to 230000 M⁻¹ s⁻¹.

B12: COVID19_P09_C08 (scFv, V domains shown)
VH: QVQLVQSGAEVKKPGSSVKVSCKASGYGFITYWIGWVRQAPGQGLEWMGIIYPGDSETRYAQKFQGRVTITADESTSTAYMELSSLRSEDTAVYYCAGGSGISTPMDVWGQGTLVTVSS
VL: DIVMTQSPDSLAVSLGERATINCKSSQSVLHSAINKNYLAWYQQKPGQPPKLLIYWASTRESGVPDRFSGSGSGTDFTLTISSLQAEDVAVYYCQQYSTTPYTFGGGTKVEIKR
Consider B12, for which, in assay [1], binding was characterised by a dissociation constant (Kd) of 28.7 nM, the koff stood at 0.0131 s⁻¹ and the kon came to 458000 M⁻¹ s⁻¹.

B13: COVID19_P21_E08 (scFv, V domains shown)
VH: QVQLVQSGAEVKKPGSSVKVSCKASGYGFITYWIGWVRQAPGQGLEWMGIIYPGDGETRYSQKFQGRVTITADESTSTAYMELSSLRSEDTAVYYCAGGSGISTPMDVWGQGTLVTVSS
VL: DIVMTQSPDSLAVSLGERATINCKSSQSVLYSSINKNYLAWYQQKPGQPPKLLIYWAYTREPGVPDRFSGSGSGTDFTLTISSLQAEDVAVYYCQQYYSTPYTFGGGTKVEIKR
Regarding B13, in assay [1], the Kd is 32.8 nM, the koff came to 0.0142 s⁻¹ and the association rate constant (kon) was found to be 434000 M⁻¹ s⁻¹.

B14: COVID19_P21_A10 (scFv, V domains shown)
VH: QVQLVQSGAEVKKPGSSVKVSCKASGYGFITYWIGWVRQAPGQGLEWMGIIYPGDGEARYSQKFQGRVTITADESTSTAYMELSSLRSEDTAVYYCAGGSGISTPMDVWGQGTLVTVSS
VL: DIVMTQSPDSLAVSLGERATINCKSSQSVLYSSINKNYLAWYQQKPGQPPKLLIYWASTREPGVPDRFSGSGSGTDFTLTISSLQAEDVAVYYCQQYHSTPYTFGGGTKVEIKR
Regarding B14, in assay [1], the Kd stood at 46.2 nM, the dissociation rate constant (koff) worked out at 0.00729 s⁻¹ and the kon is 158000 M⁻¹ s⁻¹.

B15: COVID19_P10_B08 (scFv, V domains shown)
VH: QVQLVQSGAEVKKPGSSVKVSCKASGGGFITYWIGWVRQAPGQGLEWMGWINPNSGGTKYAQKFQGRVTITADESTSTAYMELSSLRSEDTAVYYCAGGSGISTPIDVWGQGTLVTVSS
VL: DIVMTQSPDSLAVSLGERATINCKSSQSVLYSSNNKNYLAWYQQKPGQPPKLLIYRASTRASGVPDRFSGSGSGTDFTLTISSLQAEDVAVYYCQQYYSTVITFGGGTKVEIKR
In assay [1], B15 came in with a Kd of 41.3 nM, a koff of 0.0217 s⁻¹ and a kon of 527000 M⁻¹ s⁻¹.

B16: COVID19_P10_B04 (scFv, V domains shown)
VH: QVQLVQSGAEVKKPGSSVKVSCKASGYGFISYWIGWVRQAPGQGLEWMGIIYPGDGETRYSQKFQGRVTITADESTSTAYMELSSLRSEDTAVYYCAGSDGISTPMDVWGQGTLVTVSS
VL: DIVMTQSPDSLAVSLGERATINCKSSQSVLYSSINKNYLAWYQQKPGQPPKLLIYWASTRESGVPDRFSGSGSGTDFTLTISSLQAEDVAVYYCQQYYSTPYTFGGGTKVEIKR
On to B16, for which, in assay [1], the Kd amounted to 36.2 nM, the koff is 0.0223 s⁻¹ and the kon is 614000 M⁻¹ s⁻¹.

B17: COVID19_P09_G04 (scFv, V domains shown)
VH: QVQLVQSGAEVKKPGSSVKVSCKASGYGFITYWIGWVRQAPGQGLEWMGIIYPGDSETNYSQKFQGRVTITADESTSTAYMELSSLRSEDTAVYYCAGGSGLFTPMDVWGQGTLVTVSS
VL: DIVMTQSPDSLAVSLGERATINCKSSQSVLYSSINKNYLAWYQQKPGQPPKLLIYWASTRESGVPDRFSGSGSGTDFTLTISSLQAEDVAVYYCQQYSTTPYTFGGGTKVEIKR
As for B17, in assay [1], the Kd stood at 6.18 nM, the dissociation rate constant (koff) came out at 0.00381 s⁻¹ and the kon was 616000 M⁻¹ s⁻¹.

B18: COVID19_P22_D06 (scFv, V domains shown)
VH: QVQLVQSGAEVKKPGSSVKVSCKASGGGFITYWIGWVRQAPGQGLEWMGIIYPGDSETRYSQKFQGRVTITADESTSTAYMELSSLRSEDTAVYYCAGGSGVLTPMDVWGQGTLVTVSS
VL: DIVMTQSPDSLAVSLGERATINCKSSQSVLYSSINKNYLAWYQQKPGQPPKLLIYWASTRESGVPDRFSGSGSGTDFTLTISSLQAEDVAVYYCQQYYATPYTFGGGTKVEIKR
For the molecule B18, in assay [1], the Kd is 30.5 nM, the koff was 0.012 s⁻¹ and the kon came to 410000 M⁻¹ s⁻¹.

B19: COVID19_P21_E07 (scFv, V domains shown)
VH: QVQLVQSGAEVKKPGSSVKVSCKASGYGFITYWIGWVRQAPGQGLEWMGIIYPGDSETRYSQKFQGRVTITADESTSTAYMELSSLRSEDTAVYYCAGGSGISTPMDVWGQGTLVTVSS
VL: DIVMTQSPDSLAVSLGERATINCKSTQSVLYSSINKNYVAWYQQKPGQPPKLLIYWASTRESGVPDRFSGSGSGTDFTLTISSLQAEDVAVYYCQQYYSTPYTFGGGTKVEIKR
For the molecule B19, in assay [1], the affinity, expressed as Kd, was 41 nM; the koff was 0.0155 s⁻¹; the kon worked out at 378000 M⁻¹ s⁻¹.

B20: COVID19_P09_B09 (scFv, V domains shown)
VH: QVQLVQSGAEVKKPGSSVKVSCKASGYRFTDYHLHWVRQAPGQGLEWMGGIVPFSGTTNFAQKFQGRVTITADESTSTAYMELSSLRSEDTAVYYCAGGSGETTPMDVWGQGTLVTVSS
VL: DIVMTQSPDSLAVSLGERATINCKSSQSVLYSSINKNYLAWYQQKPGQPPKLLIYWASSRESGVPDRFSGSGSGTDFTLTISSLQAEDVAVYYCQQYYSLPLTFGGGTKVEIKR
For B20, in assay [1], the Kd turned out to be 22.9 nM, the koff is 0.000507 s⁻¹ and the kon was 22100 M⁻¹ s⁻¹. Also, the binding result in assay [6] is “no binding (tested: up to 300 nM)”. Further, in assay [7], the binding result is “no binding (tested: up to 300 nM)”.

B21: COVID19_P21_B12 (scFv, V domains shown)
VH: QVQLVQSGAEVKKPGSSVKVSCKASGGTFSSYAISWVRQAPGQGLEWMGMINPGGGNTNYAEKFQGRVTITADESTSTAYMELSSLRSEDTAVYYCAGEWGISTPMDVWGQGTLVTVSS
VL: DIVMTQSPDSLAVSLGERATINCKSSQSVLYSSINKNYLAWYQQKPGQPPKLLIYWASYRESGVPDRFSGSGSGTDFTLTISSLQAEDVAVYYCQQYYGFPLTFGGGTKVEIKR
In assay [1], B21 showed a dissociation constant (Kd) of 37.6 nM, a koff of 0.0104 s⁻¹ and a kon of 276000 M⁻¹ s⁻¹.

What is called Kd is the equilibrium constant for the complex coming apart. The term koff denotes the rate constant with which the complex falls apart. Low values mean slow dissociation, high ones fast dissociation. The term kon denotes the second-order rate constant of association.

Values taken from patent US11034762 (CENTIVAX, dated 2021).
